Among the data in publication PMC11697773 are Kd values, retold here.

The target in this assay is human neonatal Fc receptor (FcRn) (human) (UniProt P55899). Put plainly: BLI; Octet; biotinylated human FcRn on streptavidin-coated biosensors, antibody soluble; equilibrium binding; PBSA pH 5.6; tips regenerated in PBSA pH 7.4. Background: Biolayer interferometry detects binding as a change in optical thickness at a sensor tip.

B1: F5111 antibody, wild type (hIgG1 lambda) (antibody, V domains shown)
VH: QLQLQESGPGLVKPSQTLSLTCTVSGGSISSGGYYWSWIRQHPGKGLEWIGYIYYSGSTYYNPSLKSRVTISVDTSKNQFSLKLSSVTAADTAVYYCARTPTVTGDWFDPWGRGTLVTVSS
VL: NFMLTQPHSVSESPGKTVTISCTRSSGSIASNYVQWYQQRPGSSPTTVIYEDNQRPSGVPDRFSGSIDSSSNSASLTISGLKTEDEADYYCQSYDSSNVVFGGGTKLTVL
What is called Kd is the free concentration of one partner at which half of the binding sites on the other are occupied at equilibrium, for simple one-to-one binding. Consider B1, for which the Kd was found to be 107 nM.
